# Measured values reported in article PMC8215223.
# B1: GFP-WT-HOOK3 [human] / GM130 (endogenous) [human (endogenous in HeLa)] (parent)
# chain 1: MFSVESLERAELCESLLTWIQTFNVDAPCQTVEDLTNGVVMAQVLQKIDPAYFDENWLNRIKTEVGDNWRLKISNLKKILKGILDYNHEILGQQINDFTLPDVNLIGEHSDAAELGRMLQLILGCAVNCEQKQEYIQAIMMMEESVQHVVMTAIQELMSKESPVSAGNDAYVDLDRQLKKTTEELNEALSAKEEIAQRCHELDMQVAALQEEKSSLLAENQVLMERLNQSDSIEDPNSPAGRRHLQLQTQLEQLQEETFRLEAAKDDYRIRCEELEKEISELRQQNDELTTLADEAQSLKDEIDVLRHSSDKVSKLEGQVESYKKKLEDLGDLRRQVKLLEEKNTMYMQNTVSLEEELRKANAARSQLETYKRQVVELQNRLSEESKKADKLDFEYKRLKEKVDSLQKEKDRLRTERDSLKETIEELRCVQAQEGQLTTQGLMPLGSQESSDSLAAEIVTPEIREKLIRLQHENKMLKLNQEGSDNEKIALLQSLLDDANLRKNELETENRLVNQRLLEVQSQVEELQKSLQDQGSKAEDSVLLKKKLEEHLEKLHEANNELQKKRAIIEDLEPRFNNSSLKIEELQEALRKKEEEMKQMEERYKKYLEKAKSVIRTLDPKQNQGAAPEIQALKNQLQERDRLFHSLEKEYEKTKSQREMEEKYIVSAWYNMGMTLHKKAAEDRLASTGSGQSFLARQRQATSSRRSYPGHVQPATAR
# chain 2: MWPQPRLPPRPAMSEETRQSKLAAAKKKLREYQQRNSPGVPTGAKKKKKIKNGSNPETTTSGGCHSPEDTPKDNAATLQPSDDTVLPGGVPSPGASLTSMAASQNHDADNVPNLMDETKTFSSTESLRQLSQQLNGLVCESATCVNGEGPASSANLKDLESRYQQLAVALDSSYVTNKQLNITIEKLKQQNQEITDQLEEEKKECHQKQGALREQLQVHIQTIGILVSEKAELQTALAHTQHAARQKEGESEDLASRLQYSRRRVGELERALSAVSTQQKKADRYNKELTKERDALRLELYKNTQSNEDLKQEKSELEEKLRVLVTEKAGMQLNLEELQKKLEMTELLLQQFSSRCEAPDANQQLQQAMEERAQLEAHLGQVMESVRQLQMERDKYAENLKGESAMWRQRMQQMSEQVHTLREEKECSMSRVQELETSLAELRNQMAEPPPPEPPAGPSEVEQQLQAEAEHLRKELEGLAGQLQAQVQDNEGLSRLNREQEERLLELERAAELWGEQAEARRQILETMQNDRTTISRALSQNRELKEQLAELQSGFVKLTNENMEITSALQSEQHVKRELGKKLGELQEKLSELKETVELKSQEAQSLQQQRDQYLGHLQQYVAAYQQLTSEKEVLHNQLLLQTQLVDQLQQQEAQGKAVAEMARQELQETQERLEAATQQNQQLRAQLSLMAHPGEGDGLDREEEEDEEEEEEEAVAVPQPMPSIPEDLESREAMVAFFNSAVASAEEEQARLRGQLKEQRVRCRRLAHLLASAQKEPEAAAPAPGTGGDSVCGETHRALQGAMEKLQSRFMELMQEKADLKERVEELEHRCIQLSGETDTIGEYIALYQSQRAVLKERHREKEEYISRLAQDKEEMKVKLLELQELVLRLVGDRNEWHGRFLAAAQNPADEPTSGAPAPQELGAANQQGDLCEVSLAGSVEPAQGEAREGSPRDNPTAQQIMQLLREMQNPRERPGLGSNPCIPFFYRADENDEVKITVI
# Variants of: B1
# Experiment: coIP (co-immunoprecipitation, blot band intensity quantified)
# Settings: with GM130 (endogenous) [human (endogenous in HeLa)]; HeLa cells, 100 ng/mL nocodazole for 16 hr (+); read off a plot
row,Variant,response [A.U]
1,chain 1 S707A,16
2,chain 1 S707E,11
3,chain 1 S238A S707A,5.5
4,chain 1 S238E S707E,6.5
5,chain 1 S238A,16
6,chain 1 S238E,12
